Source: PMC2700736
Read-outs that look alike come from different tables or passages of the source.

B1: Nicked top DNA strand substrate (structured_DNA)
DNA 1: GGTGAAACACTCGAACGCTAGGGATAA
DNA 2: CAGGGTAATATAGCCAATCCAATGATTGGCTATATTACCCTGTTATCCCTAGCGTTCGAGTGTTTCA
modifications: nick at top-strand cleavage site; 5' phosphate at nick (67-mer)
B2: Nicked bottom DNA strand substrate (structured_DNA)
DNA 1: GGTGAAACACTCGAACGCTAGGGATAACAGGGTAATATAGCCAATCCAATGATTGGCTATATTACCCTGTTAT
DNA 2: CCCTAGCGTTCGAGTGTTTCA
modifications: nick at bottom-strand cleavage site; 5' phosphate at nick (21-mer)
B3: 94-mer intact hairpin substrate (structured_DNA)
DNA: GGTGAAACACTCGAACGCTAGGGATAACAGGGTAATATAGCCAATCCAATGATTGGCTATATTACCCTGTTATCCCTAGCGTTCGAGTGTTTCA
B4: Duplex linear product (upstream cleavage product) (dsDNA)
DNA 1: GGTGAAACACTCGAACGCTAGGGATAA
DNA 2: CCCTAGCGTTCGAGTGTTTCA

Legend:
Assay in all cases: filter binding
[1] = target: T1, I-SceI wild-type (UniProt P03882 1-235)
T1 sequence: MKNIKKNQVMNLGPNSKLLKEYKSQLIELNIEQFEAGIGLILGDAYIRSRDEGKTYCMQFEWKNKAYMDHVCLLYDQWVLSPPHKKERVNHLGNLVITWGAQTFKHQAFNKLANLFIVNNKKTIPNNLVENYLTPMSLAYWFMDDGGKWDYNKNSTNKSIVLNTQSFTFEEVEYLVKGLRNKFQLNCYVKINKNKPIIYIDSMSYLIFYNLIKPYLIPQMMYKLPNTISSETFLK

[2] = target: T1, I-SceI wild-type; remark: listed apart in the source
[3] = target: T2, I-SceI K122I (UniProt P03882 1-235, K122I)
T2 sequence: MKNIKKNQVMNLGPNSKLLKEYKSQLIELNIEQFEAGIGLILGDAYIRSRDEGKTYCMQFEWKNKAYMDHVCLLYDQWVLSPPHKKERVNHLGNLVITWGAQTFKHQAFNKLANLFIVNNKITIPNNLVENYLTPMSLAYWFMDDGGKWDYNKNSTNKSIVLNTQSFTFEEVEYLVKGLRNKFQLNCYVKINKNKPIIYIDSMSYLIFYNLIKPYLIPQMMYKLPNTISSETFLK

[4] = target: T3, I-SceI K223I (UniProt P03882 1-235, K223I)
T3 sequence: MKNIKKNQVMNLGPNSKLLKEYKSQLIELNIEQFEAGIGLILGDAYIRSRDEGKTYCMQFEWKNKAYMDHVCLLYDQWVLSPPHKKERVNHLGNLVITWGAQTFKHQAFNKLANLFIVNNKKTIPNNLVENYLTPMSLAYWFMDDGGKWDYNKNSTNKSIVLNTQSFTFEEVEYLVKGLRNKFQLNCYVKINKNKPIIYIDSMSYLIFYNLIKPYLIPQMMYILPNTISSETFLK

[5] = target: T2, I-SceI K122I; remark: listed apart in the source
[6] = target: T3, I-SceI K223I; remark: listed apart in the source

Row | Binder | Kd [1] [nM] | Kd [2] [nM] | Kd [3] [nM] | Kd [4] [nM] | Kd [5] [nM] | Kd [6] [nM]
1 | B1 | 19.4 ± 0.7 | 4.2 ± 1.1 | – | – | – | –
2 | B2 | 13.2 ± 2.1 | 3.2 ± 0.2 | – | – | – | –
3 | CAGGGTAATATAGCCAATCCAATGATTGGCTATATTACCCTGTTAT (structured_DNA) [Hairpin product 46-mer (downstream cleavage product)] | – | 3.3 ± 0.6 | – | – | – | –
4 | B3 | 14.5 ± 5.7 | 2.3 ± 0.4 | 17.3 ± 0.4 | 15.4 ± 0.3 | 7.3 ± 0.4 | 7.4 ± 1.3
5 | B4 | – | 175 ± 48 | – | – | – | –
